Source: US20260125454A1 (SHANGHAI JUNSHI BIOSCIENCES, published 2026)
Changes are numbered by the printed parent chain.

B1: hu31 (antibody, V domains shown)
VH: QVQLVQSGAEVKKPGASVKVSCKASGYTFIDFNMHWVRQAPGQRLEWMGYIYPYNGDVVYNQNFTNRVTLTVDTSSSTAYMELSSLRSEDTAVYYCAREGLGGYWGQGTLVTVSS
VL: EIVLTQSPATLSLSPGERATLSCKASQNIDFDGYAYMNWYQQKPGQAPRVLIYSVFNLESGIPARFSGSGSGTDFTLTISSLEPEDFAVYYCQQSHEVPYTFGQGTKLEIK
notes: 1F5 HC-1/1F5 LC1-1
B2: hu212 (antibody, V domains shown)
VH: B1 VH with I30T, F32Y, R44G, D57H, V58T, N63K, T65R, S84R, E89D
VL: DIQLTQSPSFLSASVGDRVTITCKASQNIDYDGYAYLNWYQQKPGKAPKVLIYSVFNLESGVPSRFSGSGSGTEFTLTISSLQPEDFATYYCQQSNEFPYTFGQGTKLEIK
notes: 3H10 HC-2/1A2 LC2-4
B3: hu159 (antibody, V domains shown)
VH: B1 VH with I30T, F32Y, Y52S, D57G, V58T, V59A, N63K, T65K, N66F
VL: B1 VL with F31Y, M37L, H96N, V98F
notes: 3E5 HC-2/1A2 LC2-3
B4: hu30 (antibody, V domains shown)
VH: B1 VH
VL: B2 VL
notes: 1F5 HC-1/1A2 LC2-4
B5: hu97 (antibody, V domains shown)
VH: B1 VH with I30T, F32Y, I51V, D57G, V58S, V59A, N63K, T65K, N66S
VL: B1 VL with Q42H
notes: 2A2 HC-1/1F5 LC1-2
B6: hu161 (antibody, V domains shown)
VH: B1 VH with I30T, F32Y, Y52S, D57G, V58T, V59A, N63K, T65K, N66F
VL: B1 VL
notes: 3E5 HC-2/1F5 LC1-1
B7: hu44 (antibody, V domains shown)
VH: B1 VH with I30T
VL: B1 VL
notes: 1F5 HC-2/1F5 LC1-1
B8: hu201 (antibody, V domains shown)
VH: QVQLVQSGAEVKKPGASVKVSCKASGYTFTDYNMHWVRQAPGQGLEWMGYIYPYNGHTVYNQKFRNRVTMTVDTSSSTAYMELRSLRSDDTAVYYCAKEGLGGYWGQGTLVTVSS
VL: B1 VL with Q42H
notes: 3H10 HC-1/1F5 LC1-2
B9: hu17 (antibody, V domains shown)
VH: B1 VH with I30T, F32Y, Y52F, D57V, V58A, Q62R, N63K, T65R, N66S
VL: B2 VL
notes: 1B2 HC-2/1A2 LC2-4
B10: hu123 (antibody, V domains shown)
VH: B8 VH with Y50N, H57G, R65N, M70L, K98R
VL: B1 VL with Q42H
notes: 2B8 HC1-2/1F5 LC1-2
B11: hu122 (antibody, V domains shown)
VH: B8 VH with Y50N, H57G, R65N, M70L, K98R
VL: B1 VL
notes: 2B8 HC1-2/1F5 LC1-1
B12: hu42 (antibody, V domains shown)
VH: B1 VH with I30T
VL: B1 VL with F31Y, M37L, H96N, V98F
notes: 1F5 HC-2/1A2 LC2-3
B13: hu174 (antibody, V domains shown)
VH: B8 VH with Y52S, H57G, V59A, R65K, N66F, M70L, R84S, S85R, A92V, K98R
VL: B1 VL
notes: 3E5 HC-3/1F5 LC1-1
B14: hu200 (antibody, V domains shown)
VH: B8 VH
VL: B1 VL
notes: 3H10 HC-1/1F5 LC1-1
B15: hu82 (antibody, V domains shown)
VH: B1 VH with G56A, N63D
VL: B2 VL
notes: 1F5 HC-5/1A2 LC2-4
B16: hu107 (antibody, V domains shown)
VH: B8 VH with Y50N, H57G, R65N, M70L, R84S, S85R, K98R
VL: B1 VL with F31Y, M37L, H96N, V98F
notes: 2B8 HC1-1/1A2 LC2-3
B17: hu13 (antibody, V domains shown)
VH: B8 VH with Y52F, H57V, T58A, Q62R, N66S, M70L, V72I, K98R
VL: B2 VL with F10S, D32G, A35S, L37M, E74D, F98A
notes: 1B2 HC-1/3H10 LC2-2
B18: hu198 (antibody, V domains shown)
VH: B8 VH
VL: B1 VL with F31Y, M37L, H96N, V98F
notes: 3H10 HC-1/1A2 LC2-3
B19: hu55 (antibody, V domains shown)
VH: B1 VH with I30T, R44G, S84R, E89D
VL: B1 VL with F31Y, M37L, H96N, V98F
notes: 1F5 HC-3/1A2 LC2-3
B20: hu214 (antibody, V domains shown)
VH: B8 VH with M70L, K98R
VL: B1 VL with Q42H
notes: 3H10 HC-2/1F5 LC1-2
B21: hu172 (antibody, V domains shown)
VH: B8 VH with Y52S, H57G, V59A, R65K, N66F, M70L, R84S, S85R, A92V, K98R
VL: B1 VL with F31Y, M37L, H96N, V98F
notes: 3E5 HC-3/1A2 LC2-3
B22: hu56 (antibody, V domains shown)
VH: B1 VH with I30T, R44G, S84R, E89D
VL: B2 VL
notes: 1F5 HC-3/1A2 LC2-4
B23: hu65 (antibody, V domains shown)
VH: B1 VH with I30T, R44G, S84R, E89D
VL: B2 VL with F10S, D32G, A35S, L37M, E74D, F98A
notes: 1F5 HC-3/3H10 LC2-2
B24: hu120 (antibody, V domains shown)
VH: B8 VH with Y50N, H57G, R65N, M70L, K98R
VL: B1 VL with F31Y, M37L, H96N, V98F
notes: 2B8 HC1-2/1A2 LC2-3
B25: hu135 (antibody, V domains shown)
VH: B8 VH with Y50N, G56A, H57G, R65N, M70L, R84S, S85R, K98R
VL: B1 VL
notes: 2B8 HC1-3/1F5 LC1-1
B26: hu4 (antibody, V domains shown)
VH: B8 VH with Y52F, H57V, T58A, Q62R, N66S, M70L, V72I, K98R
VL: B2 VL
notes: 1B2 HC-1/1A2 LC2-4
B27: hu211 (antibody, V domains shown)
VH: B8 VH with M70L, K98R
VL: B1 VL with F31Y, M37L, H96N, V98F
notes: 3H10 HC-2/1A2 LC2-3
B28: hu148 (antibody, V domains shown)
VH: B1 VH with A24T, I30T, F32Y, Y52S, D57G, V58T, V59A, N63K, T65K, N66F
VL: B1 VL
notes: 3E5 HC-1/1F5 LC1-1
B29: hu96 (antibody, V domains shown)
VH: B1 VH with I30T, F32Y, I51V, D57G, V58S, V59A, N63K, T65K, N66S
VL: B1 VL
notes: 2A2 HC-1/1F5 LC1-1
B30: hu187 (antibody, V domains shown)
VH: QVQLVQSGAEVKKPGASVKVSCKTSGYTFTDYNMHWVRQAPGQRLEWMGYISPYNAGTAYNQKFKFRVTLTVDTSSSTAYMELSSLRSEDTAVYYCAREGLGGYWGQGTLVTVSS
VL: B1 VL
notes: 3E5 HC-4/1F5 LC1-1
B31: hu188 (antibody, V domains shown)
VH: B30 VH
VL: B1 VL with Q42H
notes: 3E5 HC-4/1F5 LC1-2
B32: hu57 (antibody, V domains shown)
VH: B1 VH with I30T, R44G, S84R, E89D
VL: B1 VL
notes: 1F5 HC-3/1F5 LC1-1
B33: hu162 (antibody, V domains shown)
VH: B30 VH with T24A, A56G
VL: B1 VL with Q42H
notes: 3E5 HC-2/1F5 LC1-2
B34: hu110 (antibody, V domains shown)
VH: B8 VH with Y50N, H57G, R65N, M70L, R84S, S85R, K98R
VL: B1 VL with Q42H
notes: 2B8 HC1-1/1F5 LC1-2
B35: hu175 (antibody, V domains shown)
VH: B30 VH with T24A, R44G, A56G, S85R, E89D, A92V
VL: B1 VL with Q42H
notes: 3E5 HC-3/1F5 LC1-2
B36: hu95 (antibody, V domains shown)
VH: B30 VH with T24A, I51V, S52Y, A56G, T58S, F66S
VL: B2 VL
notes: 2A2 HC-1/1A2 LC2-4
B37: hu133 (antibody, V domains shown)
VH: B8 VH with Y50N, G56A, H57G, R65N, M70L, R84S, S85R, K98R
VL: B1 VL with F31Y, M37L, H96N, V98F
notes: 2B8 HC1-3/1A2 LC2-3
B38: hu149 (antibody, V domains shown)
VH: B30 VH with A56G
VL: B1 VL with Q42H
notes: 3E5 HC-1/1F5 LC1-2
B39: hu43 (antibody, V domains shown)
VH: B1 VH with I30T
VL: B2 VL
notes: 1F5 HC-2/1A2 LC2-4
B40: hu109 (antibody, V domains shown)
VH: B8 VH with Y50N, H57G, R65N, M70L, R84S, S85R, K98R
VL: B1 VL
notes: 2B8 HC1-1/1F5 LC1-1
B41: hu83 (antibody, V domains shown)
VH: B1 VH with G56A, N63D
VL: B1 VL
notes: 1F5 HC-5/1F5 LC1-1

Molecular target: T1, Biotin-huCGRPaSA (human, not fully specified; biotin (position not given))
T1 construct: exact construct ('aSA') not explained; also called Biotin CGRPaSA; full-length (1-37) CGRP
T1 peptide: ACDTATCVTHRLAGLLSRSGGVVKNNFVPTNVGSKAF
Test: ELISA, supernatant; relative to chimeric C245
In short: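 Antibodies, including reference chimeric C245, titrated 2.5-fold from 1000 ng/mL and incubated 60 min at 37°C on wells coated with 1.0 μg/mL biotin-CGRPaSA and blocked with 2% BSA. Bound IgG detected with HRP anti-human Fc antibody and TMB, acid-stopped, absorbance 450/620 nm.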

Binder | Relative binding activity, % [%]
B1 | 79
B2 | 38
B3 | 26
B4 | 47
B5 | 82
B6 | 88
B7 | 99
B8 | 67
B9 | 35
B10 | 96
B11 | 97
B12 | 55
B13 | 84
B14 | 43
B15 | 97
B16 | 73
B17 | 27
B18 | 39
B19 | 18
B20 | 57
B21 | 94

Binder | Relative binding activity, % [%]
B22 | 53
B23 | 20
B24 | 28
B25 | 98
B26 | 58
B27 | 54
B28 | 100
B29 | 82
B30 | 67
B31 | 46
B32 | 78
B33 | 81
B34 | 85
B35 | 82
B36 | 43
B37 | 81
B38 | 91
B39 | 44
B40 | 78
B41 | 102
